Data taken from US20120301476A1 (TORAY INDUSTRIES, published 2012).

What was measured:
[1] = biological target: T1, peptide of SEQ ID NO: 69 (partial sequence in the polypeptide of SEQ ID NO: 37) (human); test: ELISA on immobilised synthetic peptides
T1 peptide: QQPQAASPSVPE
Experimental: Each peptide was dissolved in 0.1M sodium carbonate buffer (pH 9.6) at a concentration of 30 μg/ml, added to a 96-well plate (Nunc, Product No. 436006) at 100 μl per well, and then left to stand at 4° C. overnight. The solution was discarded, 10 mM ethanolamine/0.1M sodium carbonate buffer (PH 9.6) was added at 200 μl per well, and then the plate was left to stand at room temperature for 1 hour. The solution was discarded, the plate was washed twice with PBS (PBST) containing 0.5% Tween20, so that the plate with each peptide immobilized thereto was prepared.
A cell culture supernatant containing the human-chicken chimeric monoclonal antibody (#1) and the mouse monoclonal antibodies (#2, #3, #4, #5, and #6) obtained in Example 4 (2) was added to the plate at 50 μl per well. After 1 hour of shaking at room temperature, the solution was removed, and then the plate was washed three times with PBST. Next, an HRP-labeled anti-human IgG (Invitrogen) antibody diluted 3000- to 4000-fold with PBST (a secondary antibody solution) was added to each well of the human-chicken chimeric monoclonal antibody and an HRP-labeled anti-mouse IgG (Invitrogen) antibody diluted 3000- to 4000-fold with PBST (a secondary antibody solution) was added to each well of the mouse monoclonal antibody, at 50 μl per well, and then the solution was removed, followed by six times of washing with PBST.
A TMB substrate solution (Thermo) was added at 100 μl per well, and the plate was left to stand for 15 to 30 minutes for coloring reaction. After color development, 1N sulfuric acid was added at 100 μl per well to stop the reaction and then absorbances at 450 nm and 595 nm were measured using an absorption spectrometer. As a result, the polypeptide of SEQ ID NO: 37 was identified as a CAPRIN-1 partial sequence that is recognized by all of the anti-CAPRIN-1 monoclonal antibodies #1 to #6. Furthermore, the peptide of SEQ ID NO: 69 was identified as a partial sequence in the above polypeptide of SEQ ID NO: 37, which is recognized by the monoclonal antibodies #1, #4, and #5. […]

[2] = biological target: T2, recombinant human CAPRIN-1 protein having the amino acid sequence represented by SEQ ID NO: 2 (prepared in … (human, UniProt Q14444 1-709, limits assumed)); test: SPR (BIACORE2000), CAPRIN-1 recombinant protein amine-coupled to CM5 chip, antibody as analyte
T2 construct: Expressed in E. coli from pET30a; the His-tag was cleaved off with enterokinase; also called CAPRIN-1 recombinant protein; CAPRIN-1 molecule
T2 sequence: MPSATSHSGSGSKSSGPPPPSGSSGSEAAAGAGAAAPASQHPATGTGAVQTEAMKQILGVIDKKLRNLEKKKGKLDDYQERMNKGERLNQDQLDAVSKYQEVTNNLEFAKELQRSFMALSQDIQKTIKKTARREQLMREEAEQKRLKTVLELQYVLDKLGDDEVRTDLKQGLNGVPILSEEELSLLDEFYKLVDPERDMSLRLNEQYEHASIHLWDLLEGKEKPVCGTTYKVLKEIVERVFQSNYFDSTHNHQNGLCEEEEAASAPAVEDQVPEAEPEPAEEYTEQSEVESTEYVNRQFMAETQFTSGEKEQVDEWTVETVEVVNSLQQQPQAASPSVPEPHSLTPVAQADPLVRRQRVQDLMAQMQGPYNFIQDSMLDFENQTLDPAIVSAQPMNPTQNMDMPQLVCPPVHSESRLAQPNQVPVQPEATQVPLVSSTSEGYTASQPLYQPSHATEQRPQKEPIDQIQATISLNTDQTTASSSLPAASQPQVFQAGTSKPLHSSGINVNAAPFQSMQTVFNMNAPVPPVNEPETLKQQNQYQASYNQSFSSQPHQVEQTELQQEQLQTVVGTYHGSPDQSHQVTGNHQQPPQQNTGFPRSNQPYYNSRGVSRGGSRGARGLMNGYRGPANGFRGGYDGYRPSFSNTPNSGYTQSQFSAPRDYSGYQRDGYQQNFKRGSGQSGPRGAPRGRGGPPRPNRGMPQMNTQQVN
Experimental: As a reference control (reference cell), a sensor chip with 20 μg/ml bovine serum-derived albumin immobilized thereto by the same method was used. A sensor chip to which the CAPRIN-1 molecule had been immobilized was set in BIACORE2000, 40 μL, each of the antibody solution (analyte) prepared to have a concentration (100, 80, 40, 20, 10, 5, or 2.5 μg/mL) was applied at a flow rate of 20 μL/minute, the surface plasmon resonance angle at the time of binding of an antibody to the CAPRIN-1 molecule immobilized on the sensor chip was measured, so that each RU value (Resonance Unit) was obtained. Next, a running buffer HBS-EP solution (GE) was applied and then the resonance angle upon dissociation of the antibody from the CAPRIN-1 molecule was measured, and then the RU value at this time was obtained. An antibody solution was similarly applied to a reference control (reference cell) sensor chip, the resonance angle at the time of immobilization reaction and the resonance angle at the time of dissociation reaction were measured, and thus the background RU values were obtained. […] Association rate constant (kₒₙ) and dissociation rate constant (koff) were found from the thus obtained RU value at each antibody concentration using affinity analysis software BIA evaluation, so that affinity constant Ka(=kₒₙ/koff) was calculated.

B1: human-chicken chimeric antibody #1 having the chicken monoclonal antibody #1 variable region (antibody, V domains shown)
VH: AVTLDESGGGLQMSRGGLSLVCKASGFDFSSYQMNWIRQAPGKGLEFVAAINKFGNSTGHGAAVKGRVTISRDNGQSTVRLQLNNLRAEDTAIYFCTKHAYGYCGSGTWCAAGEIDAWGHGTEVIVSS
VL: QAASTQPSSVSANPGETVEITCSGGGSYSYGWFQQKSPGSAPVTVIYYNNKRPSDIPSRFSGSKSGSTGTLTITGVQADDEAVYYCGSGDSTDTAVFGAGTTLTVLG
notes: also called anti-CAPRIN-1 antibody #1; human-chicken chimeric monoclonal antibody (#1); not shown: human IgG1 H-chain constant region; human IgG1 L-chain constant region
**Q.** Which results are given for B1?
**A.** binding result [1]: binds; Ka [2]: 4.6e+07 M⁻¹
